Holding throughout (assay): competition
For one experiment, the target named is T1, integrin αvβ8 (human, UniProt P06756).
T1 chain 1: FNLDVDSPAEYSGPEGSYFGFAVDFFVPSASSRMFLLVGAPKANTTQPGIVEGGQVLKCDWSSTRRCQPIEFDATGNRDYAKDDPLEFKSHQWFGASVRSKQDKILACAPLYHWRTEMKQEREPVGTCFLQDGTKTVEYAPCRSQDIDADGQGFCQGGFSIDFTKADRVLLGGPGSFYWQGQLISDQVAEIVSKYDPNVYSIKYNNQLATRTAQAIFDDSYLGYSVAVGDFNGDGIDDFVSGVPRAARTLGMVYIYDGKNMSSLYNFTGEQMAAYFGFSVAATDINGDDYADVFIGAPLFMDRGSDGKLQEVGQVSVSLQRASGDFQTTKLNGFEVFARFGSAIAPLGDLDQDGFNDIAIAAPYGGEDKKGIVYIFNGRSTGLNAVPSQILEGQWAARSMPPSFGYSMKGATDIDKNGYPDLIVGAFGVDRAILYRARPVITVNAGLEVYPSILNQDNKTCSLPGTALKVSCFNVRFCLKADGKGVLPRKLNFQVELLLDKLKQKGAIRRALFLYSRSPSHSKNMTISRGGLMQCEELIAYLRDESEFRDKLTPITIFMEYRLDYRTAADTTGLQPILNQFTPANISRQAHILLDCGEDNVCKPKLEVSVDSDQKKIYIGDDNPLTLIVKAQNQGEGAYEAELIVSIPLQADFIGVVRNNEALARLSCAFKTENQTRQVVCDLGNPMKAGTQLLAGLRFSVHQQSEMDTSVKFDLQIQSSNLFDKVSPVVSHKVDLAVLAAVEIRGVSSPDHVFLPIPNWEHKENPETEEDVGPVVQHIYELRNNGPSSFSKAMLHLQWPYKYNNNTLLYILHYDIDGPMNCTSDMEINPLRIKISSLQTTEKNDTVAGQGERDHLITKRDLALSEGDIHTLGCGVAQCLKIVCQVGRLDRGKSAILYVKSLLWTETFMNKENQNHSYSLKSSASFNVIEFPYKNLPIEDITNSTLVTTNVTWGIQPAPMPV
T1 chain 2: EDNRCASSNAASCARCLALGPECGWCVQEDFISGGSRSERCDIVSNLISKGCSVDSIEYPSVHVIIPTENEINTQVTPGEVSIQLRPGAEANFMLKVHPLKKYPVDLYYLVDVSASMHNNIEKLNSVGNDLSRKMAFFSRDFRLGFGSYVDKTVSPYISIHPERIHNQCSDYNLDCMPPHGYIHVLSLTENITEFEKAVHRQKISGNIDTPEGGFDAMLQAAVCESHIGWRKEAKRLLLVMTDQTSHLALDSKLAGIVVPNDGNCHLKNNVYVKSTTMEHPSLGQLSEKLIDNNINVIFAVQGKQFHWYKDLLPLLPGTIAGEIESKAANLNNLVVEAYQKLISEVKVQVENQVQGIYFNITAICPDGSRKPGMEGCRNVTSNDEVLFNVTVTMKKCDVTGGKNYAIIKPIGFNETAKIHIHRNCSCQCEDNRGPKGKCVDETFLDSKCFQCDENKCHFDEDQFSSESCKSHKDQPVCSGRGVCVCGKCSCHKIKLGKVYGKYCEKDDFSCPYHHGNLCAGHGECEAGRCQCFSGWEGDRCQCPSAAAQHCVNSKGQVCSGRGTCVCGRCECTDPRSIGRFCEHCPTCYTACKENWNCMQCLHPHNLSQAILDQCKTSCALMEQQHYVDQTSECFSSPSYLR

For another experiment, the target named is T2, integrin αvβ6 (human, UniProt P06756).
T2 chain 1: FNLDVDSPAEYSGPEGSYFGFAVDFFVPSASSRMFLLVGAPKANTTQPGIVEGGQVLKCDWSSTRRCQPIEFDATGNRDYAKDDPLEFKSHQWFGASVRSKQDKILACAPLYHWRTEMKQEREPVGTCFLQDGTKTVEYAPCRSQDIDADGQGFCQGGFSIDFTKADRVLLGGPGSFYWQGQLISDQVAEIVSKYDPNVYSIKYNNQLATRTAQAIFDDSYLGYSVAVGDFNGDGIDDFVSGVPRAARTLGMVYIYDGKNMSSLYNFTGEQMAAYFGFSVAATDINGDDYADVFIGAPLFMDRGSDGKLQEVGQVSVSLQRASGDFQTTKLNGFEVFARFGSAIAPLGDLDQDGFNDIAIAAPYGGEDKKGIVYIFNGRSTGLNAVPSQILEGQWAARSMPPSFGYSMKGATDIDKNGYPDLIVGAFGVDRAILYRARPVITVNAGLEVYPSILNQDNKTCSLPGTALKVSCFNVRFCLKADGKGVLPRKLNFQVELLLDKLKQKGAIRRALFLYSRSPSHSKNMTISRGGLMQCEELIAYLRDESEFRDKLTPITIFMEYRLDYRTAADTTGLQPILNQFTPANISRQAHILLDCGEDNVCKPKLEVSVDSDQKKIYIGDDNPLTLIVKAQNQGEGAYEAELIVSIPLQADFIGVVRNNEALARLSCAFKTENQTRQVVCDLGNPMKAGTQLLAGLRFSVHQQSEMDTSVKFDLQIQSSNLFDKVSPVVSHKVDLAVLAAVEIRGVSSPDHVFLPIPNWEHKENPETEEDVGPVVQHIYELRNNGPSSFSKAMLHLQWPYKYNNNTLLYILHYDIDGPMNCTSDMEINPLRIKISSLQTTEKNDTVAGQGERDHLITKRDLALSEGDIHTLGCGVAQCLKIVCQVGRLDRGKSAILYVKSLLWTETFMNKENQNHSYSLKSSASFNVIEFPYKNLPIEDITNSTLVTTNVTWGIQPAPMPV
T2 chain 2: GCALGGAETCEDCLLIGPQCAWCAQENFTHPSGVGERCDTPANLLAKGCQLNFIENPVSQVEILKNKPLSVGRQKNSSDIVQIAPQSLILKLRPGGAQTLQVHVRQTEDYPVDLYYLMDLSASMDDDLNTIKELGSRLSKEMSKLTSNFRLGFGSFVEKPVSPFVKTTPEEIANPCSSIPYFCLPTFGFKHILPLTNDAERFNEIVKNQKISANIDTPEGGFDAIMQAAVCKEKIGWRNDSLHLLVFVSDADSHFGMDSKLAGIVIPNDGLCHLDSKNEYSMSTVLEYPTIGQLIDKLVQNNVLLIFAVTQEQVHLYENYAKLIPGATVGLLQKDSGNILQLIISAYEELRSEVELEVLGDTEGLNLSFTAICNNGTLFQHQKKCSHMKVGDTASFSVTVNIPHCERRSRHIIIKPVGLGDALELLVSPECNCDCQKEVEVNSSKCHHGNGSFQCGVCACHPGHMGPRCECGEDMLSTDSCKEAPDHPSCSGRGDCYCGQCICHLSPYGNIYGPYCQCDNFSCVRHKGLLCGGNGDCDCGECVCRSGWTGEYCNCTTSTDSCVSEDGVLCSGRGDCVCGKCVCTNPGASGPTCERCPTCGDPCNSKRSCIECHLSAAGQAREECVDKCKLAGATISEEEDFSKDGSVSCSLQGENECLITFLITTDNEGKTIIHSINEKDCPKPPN

A further experiment addresses T3, integrin αvβ5 (human, UniProt P06756).
T3 chain 1: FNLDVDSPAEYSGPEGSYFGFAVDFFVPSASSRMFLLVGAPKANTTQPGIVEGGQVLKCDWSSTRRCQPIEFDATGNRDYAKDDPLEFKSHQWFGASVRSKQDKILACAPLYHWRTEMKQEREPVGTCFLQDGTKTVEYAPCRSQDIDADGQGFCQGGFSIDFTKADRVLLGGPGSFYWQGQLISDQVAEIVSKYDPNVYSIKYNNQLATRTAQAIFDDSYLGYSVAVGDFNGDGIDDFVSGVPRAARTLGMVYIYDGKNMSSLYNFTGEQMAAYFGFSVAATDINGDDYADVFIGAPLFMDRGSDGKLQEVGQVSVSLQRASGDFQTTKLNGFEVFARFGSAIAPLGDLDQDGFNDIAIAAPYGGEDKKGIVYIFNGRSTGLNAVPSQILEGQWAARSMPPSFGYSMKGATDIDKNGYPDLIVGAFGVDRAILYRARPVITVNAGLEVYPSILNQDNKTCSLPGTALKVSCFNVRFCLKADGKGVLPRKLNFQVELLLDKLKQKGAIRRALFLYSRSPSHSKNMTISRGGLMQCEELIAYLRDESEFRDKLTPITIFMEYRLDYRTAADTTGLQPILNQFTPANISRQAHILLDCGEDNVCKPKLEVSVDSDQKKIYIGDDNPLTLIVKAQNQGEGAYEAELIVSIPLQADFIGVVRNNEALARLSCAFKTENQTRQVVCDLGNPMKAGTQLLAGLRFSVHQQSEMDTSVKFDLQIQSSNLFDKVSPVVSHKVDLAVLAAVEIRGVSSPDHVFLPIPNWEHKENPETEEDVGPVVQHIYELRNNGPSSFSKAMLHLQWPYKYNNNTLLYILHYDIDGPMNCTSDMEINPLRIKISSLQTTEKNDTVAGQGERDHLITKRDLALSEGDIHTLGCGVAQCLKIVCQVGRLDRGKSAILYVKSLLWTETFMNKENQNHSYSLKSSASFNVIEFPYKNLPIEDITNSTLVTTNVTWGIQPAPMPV
T3 chain 2: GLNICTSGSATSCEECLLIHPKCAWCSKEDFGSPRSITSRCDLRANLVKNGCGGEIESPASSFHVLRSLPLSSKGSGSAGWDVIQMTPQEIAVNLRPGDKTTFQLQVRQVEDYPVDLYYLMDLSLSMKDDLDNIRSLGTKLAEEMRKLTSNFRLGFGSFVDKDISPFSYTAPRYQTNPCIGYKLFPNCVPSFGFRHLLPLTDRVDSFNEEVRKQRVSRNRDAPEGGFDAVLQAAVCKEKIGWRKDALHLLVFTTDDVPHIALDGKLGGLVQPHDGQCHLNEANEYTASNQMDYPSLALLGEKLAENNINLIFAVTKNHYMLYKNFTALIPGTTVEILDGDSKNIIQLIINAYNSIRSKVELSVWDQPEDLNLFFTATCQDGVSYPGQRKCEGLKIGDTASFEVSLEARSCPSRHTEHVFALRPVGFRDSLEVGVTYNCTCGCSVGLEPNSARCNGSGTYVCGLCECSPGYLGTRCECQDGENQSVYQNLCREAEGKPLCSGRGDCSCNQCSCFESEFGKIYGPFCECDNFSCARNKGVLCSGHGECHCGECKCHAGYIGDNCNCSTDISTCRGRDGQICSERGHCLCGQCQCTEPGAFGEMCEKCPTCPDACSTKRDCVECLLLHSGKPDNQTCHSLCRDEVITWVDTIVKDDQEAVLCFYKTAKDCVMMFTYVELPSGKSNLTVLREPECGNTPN

In another experiment the target is integrin α5β1 (human, UniProt P08648).
The target of another experiment is T4, integrin αvβ3 (human, UniProt P06756).
T4 chain 1: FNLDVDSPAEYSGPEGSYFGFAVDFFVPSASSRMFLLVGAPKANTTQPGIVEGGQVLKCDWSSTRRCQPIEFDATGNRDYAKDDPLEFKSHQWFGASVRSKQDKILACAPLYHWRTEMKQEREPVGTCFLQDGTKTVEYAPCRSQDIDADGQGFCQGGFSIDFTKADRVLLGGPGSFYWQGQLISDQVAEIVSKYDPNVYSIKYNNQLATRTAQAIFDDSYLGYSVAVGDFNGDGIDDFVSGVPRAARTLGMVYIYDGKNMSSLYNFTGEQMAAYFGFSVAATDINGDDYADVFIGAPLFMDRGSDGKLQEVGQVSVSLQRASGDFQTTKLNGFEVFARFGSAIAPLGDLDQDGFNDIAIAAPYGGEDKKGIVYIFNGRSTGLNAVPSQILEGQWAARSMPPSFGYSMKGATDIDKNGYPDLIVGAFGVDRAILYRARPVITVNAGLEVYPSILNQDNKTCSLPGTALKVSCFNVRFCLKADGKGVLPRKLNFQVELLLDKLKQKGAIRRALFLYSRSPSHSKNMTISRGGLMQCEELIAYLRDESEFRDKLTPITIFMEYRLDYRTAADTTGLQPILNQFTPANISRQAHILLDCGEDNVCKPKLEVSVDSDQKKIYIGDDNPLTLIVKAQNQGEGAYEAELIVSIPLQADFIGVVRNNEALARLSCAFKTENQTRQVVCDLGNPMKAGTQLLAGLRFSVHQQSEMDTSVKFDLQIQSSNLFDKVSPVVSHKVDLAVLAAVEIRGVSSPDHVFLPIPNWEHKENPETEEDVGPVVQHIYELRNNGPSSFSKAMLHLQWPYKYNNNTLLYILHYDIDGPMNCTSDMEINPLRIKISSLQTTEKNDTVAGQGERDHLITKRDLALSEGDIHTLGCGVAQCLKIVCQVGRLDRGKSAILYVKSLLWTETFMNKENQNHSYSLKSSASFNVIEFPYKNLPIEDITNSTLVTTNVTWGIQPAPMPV
T4 chain 2: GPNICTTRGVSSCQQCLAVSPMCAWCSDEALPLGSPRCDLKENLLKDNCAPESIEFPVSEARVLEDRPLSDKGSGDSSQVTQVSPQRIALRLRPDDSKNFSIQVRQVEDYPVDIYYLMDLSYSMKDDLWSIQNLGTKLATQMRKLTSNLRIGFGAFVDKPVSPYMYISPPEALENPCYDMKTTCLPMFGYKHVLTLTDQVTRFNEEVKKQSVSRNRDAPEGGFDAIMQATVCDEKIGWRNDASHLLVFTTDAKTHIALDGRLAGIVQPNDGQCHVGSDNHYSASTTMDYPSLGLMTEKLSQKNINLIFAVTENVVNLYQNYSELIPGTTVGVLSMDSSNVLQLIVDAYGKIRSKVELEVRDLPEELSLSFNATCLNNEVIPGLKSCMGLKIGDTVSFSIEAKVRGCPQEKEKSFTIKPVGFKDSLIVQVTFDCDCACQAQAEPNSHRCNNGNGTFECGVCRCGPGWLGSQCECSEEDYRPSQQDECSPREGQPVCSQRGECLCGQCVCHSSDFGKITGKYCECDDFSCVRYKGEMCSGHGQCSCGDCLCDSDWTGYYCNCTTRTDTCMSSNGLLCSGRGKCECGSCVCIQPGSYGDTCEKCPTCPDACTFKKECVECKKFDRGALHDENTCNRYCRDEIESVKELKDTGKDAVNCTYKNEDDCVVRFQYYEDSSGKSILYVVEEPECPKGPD

Where no end group is shown, it is not given here. Side-chain parts run from the residue outwards. [ ]: non-standard residue; d: D form. The star is where a group is joined. BODIPY(FL) = CC1=CC(C)=[N+]2C1=Cc1ccc(CCC(=O)*)n1[B-]2(F)F; NMeK = CN[C@@H](CCCCN)C(=O)O

Sequence of integrin α5β1 (P08648 42-1049, chain 1 of 2): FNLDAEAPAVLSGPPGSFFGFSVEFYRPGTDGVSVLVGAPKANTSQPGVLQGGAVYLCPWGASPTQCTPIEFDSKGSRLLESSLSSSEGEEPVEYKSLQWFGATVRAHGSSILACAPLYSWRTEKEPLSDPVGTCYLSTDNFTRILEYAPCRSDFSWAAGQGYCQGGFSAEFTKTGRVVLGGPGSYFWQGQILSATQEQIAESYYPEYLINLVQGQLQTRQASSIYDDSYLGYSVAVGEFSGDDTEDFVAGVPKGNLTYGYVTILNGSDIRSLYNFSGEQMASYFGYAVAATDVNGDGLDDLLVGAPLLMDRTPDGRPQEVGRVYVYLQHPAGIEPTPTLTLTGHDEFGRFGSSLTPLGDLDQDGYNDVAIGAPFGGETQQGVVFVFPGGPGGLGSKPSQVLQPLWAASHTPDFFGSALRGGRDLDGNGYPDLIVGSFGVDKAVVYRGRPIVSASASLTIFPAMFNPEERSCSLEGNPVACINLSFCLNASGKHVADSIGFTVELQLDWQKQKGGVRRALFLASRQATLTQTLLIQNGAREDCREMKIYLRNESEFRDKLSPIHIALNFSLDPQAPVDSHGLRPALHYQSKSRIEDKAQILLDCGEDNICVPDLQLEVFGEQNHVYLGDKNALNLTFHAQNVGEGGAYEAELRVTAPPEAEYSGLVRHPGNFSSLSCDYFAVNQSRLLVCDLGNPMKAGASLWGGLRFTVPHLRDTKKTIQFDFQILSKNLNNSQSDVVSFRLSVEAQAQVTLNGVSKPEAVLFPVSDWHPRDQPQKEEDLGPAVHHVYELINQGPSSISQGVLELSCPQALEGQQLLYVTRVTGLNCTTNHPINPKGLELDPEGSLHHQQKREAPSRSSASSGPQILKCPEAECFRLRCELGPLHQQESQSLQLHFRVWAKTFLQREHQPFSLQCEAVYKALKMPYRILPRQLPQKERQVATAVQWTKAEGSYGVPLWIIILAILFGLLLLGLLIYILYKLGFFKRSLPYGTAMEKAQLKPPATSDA
Sequence of integrin α5β1 (chain, as listed by the source, chain 2 of 2): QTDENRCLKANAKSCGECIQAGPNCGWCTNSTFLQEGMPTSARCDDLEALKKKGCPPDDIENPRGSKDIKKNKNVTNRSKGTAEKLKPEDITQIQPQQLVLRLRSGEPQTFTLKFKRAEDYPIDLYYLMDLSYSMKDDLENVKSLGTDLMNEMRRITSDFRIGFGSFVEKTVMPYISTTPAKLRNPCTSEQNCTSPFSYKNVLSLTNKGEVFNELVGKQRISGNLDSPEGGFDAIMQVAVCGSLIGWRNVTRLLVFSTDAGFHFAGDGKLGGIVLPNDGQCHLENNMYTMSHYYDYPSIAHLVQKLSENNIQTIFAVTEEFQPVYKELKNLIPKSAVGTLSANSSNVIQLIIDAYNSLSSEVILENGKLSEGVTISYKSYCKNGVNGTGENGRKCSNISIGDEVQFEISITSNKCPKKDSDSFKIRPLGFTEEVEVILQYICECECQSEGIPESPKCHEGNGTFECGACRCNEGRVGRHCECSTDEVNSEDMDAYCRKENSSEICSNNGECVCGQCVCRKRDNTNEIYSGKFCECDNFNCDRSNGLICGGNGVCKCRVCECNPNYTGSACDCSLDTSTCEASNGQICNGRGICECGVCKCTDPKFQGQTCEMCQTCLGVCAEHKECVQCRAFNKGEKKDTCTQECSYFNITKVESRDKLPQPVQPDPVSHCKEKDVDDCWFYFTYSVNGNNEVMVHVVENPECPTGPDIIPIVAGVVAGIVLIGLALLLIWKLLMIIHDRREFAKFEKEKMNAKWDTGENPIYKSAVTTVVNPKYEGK

In the case of RGDL[dP][NMeK]([(PEG)5-BODIPY(FL)])GL (not fully specified (bridges); also: cyclic, closure not given here) [Compound 9d (9-(PEG)5-BDPFL)], the IC50 (commonly the concentration that inhibits the measured activity by half) was 1.25 nM in the experiment with integrin αvβ8; 247 nM with integrin αvβ6; more than 10000 nM in the experiment with integrin αvβ5; 95 nM with integrin α5β1; 98 nM in the experiment with integrin αvβ3.

The values above are taken from US20200087347 (published 2020).
